From patent US20240352121A1, “LAIR-1 AGONISTIC ANTIBODIES AND METHODS OF USE THEREOF” (NEXTCURE, INC., priority 2023, published 2024) come the findings set out here.

In data set [1] the test system is healthy human primary immune cells. Put plainly: Effect on healthy human immune cells in mice reconstituted with human CD34 cells. The class given is in vivo, NSG-SGM3 mice. How it is done: NSG-SGM3 mice were purchased from Jackson Laboratory. Mice were engrafted with CD34+ cord blood cells donor #2523. Mice treated weekly beginning 18 weeks after engraftment with anti-human LAIR-1 mAb clone 11B3 in human G1 or G4P format, or control at 100 μg/mouse (5 mg/kg) for 4 weeks. Bleed at weeks 2 (1 day prior to 2nd dose) and 4 (one day prior to 4th dose) for circulating immune cells. Mice were sacrificed 1 week after final dose for analysis of spleen, LN and bone marrow. FIGS. 35A-35B show total body weight and survival of NSG-SGM3 mice reconstituted with human CD34+ cord blood cells and treated 11B3 antibodies. FIGS. 35C-35G show time-course follow-up of the changes in the immune cell numbers in the blood collected from NSG-SGM3 reconstituted with human CD34+ cord blood cells. FIGS. 35H-35I show Analysis of immune cell numbers in the spleen and bone marrow collected from NSG-SGM3 reconstituted with human CD34+ cord blood cells.
For assessment of mAb impacts on normal human immune cells, NSG-SGM3-CD34^+ fully engrafted humanized mice (>25% human CD45+ leukocytes in circulation) were purchased from Jackson Laboratory (stock #2523, Bar Harbor, ME). […] Absolute numbers of cell subpopulations were calculated, as well as percentages of each population subset as a percentage of total CD45^+ cells and total leukocyte gate.

Data set [2] concerns AML PBMCs. Put plainly: ADCC assay, AML patient PBMCs with healthy donor NK cells. The class given is cell-based, human. Particulars: 3:1 Target:Effector ratio, 4 hours. How it is done: ADCC was measured using the CytoTox 96® Non-Radioactive Cytotoxicity Assay (Promega) following the manufacturer's instructions. Briefly, AML patient PBMCs were mixed with healthy donor NK cells at a 3:1 Target:Effector ratio in complete RPMI containing the indicated concentration of soluble h11B3 or Fc-G1 isotype control. Mixed cells were incubated for 4 hours at 37 deg C. Test wells were run in quadruplicate. AML PBMCs-Donor #200018616, newly diagnosed/untreated. NK cells-Healthy Donor #83, isolated from PBMCs via StemCell Kit #17955 following manufacturer's instructions. CytoTox 96® Non-Radioactive Cytotoxicity Assay Promega Cat #G1780. % Cytotoxicity quantified by target cell LDH release. % Cytotoxicity=((Test Well LDH Release−Effector Cell Spontaneous Release−Target Cell Spontaneous Release)/(Target Cell Max Release−Target Cell Spontaneous Release))*100. Target Cells=AML PBMCs Donor #200018616; Effector Cells=NK cells isolated from healthy Donor #83 PBMCs. […] ADCC was measured using the Toxilight Bioluminescent Cytotoxicity Assay (Lonza)) following the manufacturer's instructions. […] Toxilight Bioluminescent Cytotoxicity Assay kit Lonza Cat #LT17-217. % Cytotoxicity quantified by target cell adenylate kinase release; ADCC calculated as described above. […]

In data set [3] the test system is MV4-11 cells. Put plainly: Digital spatial imaging of bone and spleen of MV4-11 CDX mice. The class given is in vivo, NSG mice. The text has this:
FIGS. 6A-6D display LAIR-1 signaling restricts AML survival signaling pathways in vivo. […] N=3 mice per group. […] N=6 mice per group. FIG. 6C is representative images of CDX mouse bones stained with DAPI and anti-human CD45 used to quantify the number of MV4-11 cells in the indicated region of interest (ROI) (highlighted). ROI area is equal between samples. […] Read counts are normalized to Histone H3 and ribosomal protein S6. N=3-11 quantified tissue regions across 2 isotype-treated or 2 LAIR-1 mAb-treated mice. Error bars represent standard error of mean. P values determined by Student's T test.
Protocols and reagents from NanoString were used for GeoMx digital spatial imaging (DSP). Briefly, formalin-fixed paraffin-embedded (FFPE) sections of tumor and spleen were deparaffinized and rehydrated, antigen-retrieved in citrate buffer, blocked, and stained with the Human Immune Profiling Core and Cell Death Panel overnight at 37 degrees C. Anti-HCD45-Alexaflour 647 antibody (NBP2-34528AF647 from Novus Biologicals, Centennial, CO) was used as a morphology marker at 5 μg/mL to identify MV4-11 cells. After washing, slides were fixed in 4% paraformaldehyde and nuclei were stained with Syto13. Slides were scanned and regions of interest (human CD45 regions) were acquired on a GeoMx DSP instrument (Nanostring, Seattle, WA). Approximately 5 regions of interest (ROIs) were collected per tissue, and samples were multi-plexed and processed on the nCounter Prep Station and Digital Analyzer as recommended. Data were analyzed on DSP Analysis software. Following quality control, data were normalized to housekeeping genes, and statistics were performed using a linear mixed model with a Benjamin-Hochberg correction.

B1: LAIR-1 mAb: humanized agonist anti-LAIR-1 mAb, IgG1 backbone; h11B3 VL-2 (SEQ ID NO: 16), h11B3 VH-3 (SEQ ID NO: 27) (antibody, V domains shown)
VH: EVQLVESGGGLVQPGGSLKLSCAASGFTFNTNAMYWVRQAPGKGLEWVGRIRSKSSNYATYYAASVKGRFTISRDDSKNTLYLQMNSLKTEDTAVYYCVRGGSGFFAYWGQGTLVTVSS
VL: DIQMTQSPSSLSASLGDRVTITCKASEDIYIRLAWYQQKPGKAPRLLISTATSLETGVPSRFSGSGSGTDYTFTISSLQPEDIATYYCQQYWSTPYTFGGGTRLEIK
modifications: IgG1 constant regions; Synthetic: h11B3 VH-3; Synthetic: h11B3 VL-2
With B1, the “depletion, inhibition, or expansion of healthy human primary immune cells” value in data set [1] (100 μg/mouse (5 mg/kg) weekly for 4 weeks) is “no depletion, inhibition, or expansion”. The “effects on healthy immune cells in the spleen or the bone-marrow” value in data set [1] (NSG mice reconstituted with healthy human CD34 stem cells) is given as “minimal effects”. For the same molecule, the ADCC result in data set [2] was “induces AML cell death through antibody dependent cytotoxicity (ADCC)”. For the same molecule, in data set [3] (day 22 post-engraftment), the “AML cells (human CD45+ cells) in the bones” value is “reduction”. Also, in data set [3] (in bones but not the spleen), the “anti-apoptotic BCL-XL” value is on record as “decreased levels” and the “anti-apoptotic uncleaved PARP” value was “decreased levels”.
